Measurements as given in the supplement of paper PMC10567573.

B1: FCHO1 (parent)
chain: FSDPSQSDPETKDFWLNMAALTEA
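Note: lentivirally expressed fusions sorted by FACS into six bins by GFP to DsRed ratio, PSI derived from sequencing read proportions per bin multiplied by bin number.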

Variants of: B1
Assay: protein stability index of a GFP-peptide fusion (GPS, HEK-293T) (PSI 1-6); higher = more stable
Details: c terminus: a fixed tail appended
FSDPSQSDPETKDFWLNMAALMEA [T22M] showed a protein stability index of 3.02. For FSDPSQSDPETKDFWLNMAALWEA [T22W], the protein stability index was 3.27. FSDPSQSDPETKDFWLNMAALAEA [T22A] gave a protein stability index of 2.87. With FSDPSQSDPETKDFWLNMAALQEA [T22Q] the protein stability index was 2.9. Variant FSDPSQSDPETKDFWLNMAALLEA [T22L] has a protein stability index of 2.82. Variant FSDPSQSDPETKDFWLNMAALGEA [T22G] has a protein stability index of 2.53. For FSDPSQSDPETKDFWLNMAALFEA [T22F], the protein stability index was 3.23. With FSDPSQSDPETKDFWLNMAVLTEA [A20V] the protein stability index was 2.19. With FSDPSQSDPETKDFWLNMAQLTEA [A20Q] the protein stability index was 2.63. For FSDPSQSDPETKDFWLNMAKLTEA [A20K], the protein stability index was 2.63. FSDPSQSDPETKDFWLNMASLTEA [A20S] gave a protein stability index of 2.94. FSDPSQSDPETKDFWLNMAYLTEA [A20Y] showed a protein stability index of 2.44. Variant FSDPSQSDPETKDFWLNMANLTEA [A20N] has a protein stability index of 2.86. FSDPSQSDPETKDFWLNMACLTEA [A20C] showed a protein stability index of 2.34. Work on FSDPSQSDPETKDFWLNMAFLTEA [A20F] yielded a protein stability index of 2.24. FSDPSQSDPETKDFWLNMALLTEA [A20L] gave a protein stability index of 2.31. Variant FSDPSQSDPETKDFGLNMAALTEA [W15G] has a protein stability index of 4.65. With FSDPSQSDPETKDFSLNMAALTEA [W15S] the protein stability index was 4.82. FSDPSQSDPETKDFKLNMAALTEA [W15K] showed a protein stability index of 4.85. FSDPSQSDPETKDFTLNMAALTEA [W15T] showed a protein stability index of 4.38. With FSDPSQSDPETKDFQLNMAALTEA [W15Q] the protein stability index was 4.45. In the case of FSDPSQSDPETKDFNLNMAALTEA [W15N], the protein stability index is reported as 4.79. Work on FSDPSQSDPETKDFELNMAALTEA [W15E] yielded a protein stability index of 4.68. In the case of FSDPSQSDPETKDFDLNMAALTEA [W15D], the protein stability index is reported as 5.32. For FSDPSQSDPETKDFALNMAALTEA [W15A], the protein stability index was 4.88. With FSDPSQSDPETKDFHLNMAALTEA [W15H] the protein stability index was 4.73. Variant FSDPSQSDPETKDFPLNMAALTEA [W15P] has a protein stability index of 4.66. Work on FSDPSQSDPETKDFMLNMAALTEA [W15M] yielded a protein stability index of 4.48. In the case of FSDPSQSDPETKDFRLNMAALTEA [W15R], the protein stability index is reported as 4.68. For FSDPSQSDPQTKDFWLNMAALTEA [E10Q], the protein stability index was 2.54. FSDPSQSDPITKDFWLNMAALTEA [E10I] showed a protein stability index of 2.45. With FSDPSQSDPATKDFWLNMAALTEA [E10A] the protein stability index was 2.5. With FSDPSQSDPRTKDFWLNMAALTEA [E10R] the protein stability index was 2.29. For FSDPSQSDPYTKDFWLNMAALTEA [E10Y], the protein stability index was 2.14. In the case of FSDPSQSDPKTKDFWLNMAALTEA [E10K], the protein stability index is reported as 2.04. With FSDPSQSDPHTKDFWLNMAALTEA [E10H] the protein stability index was 1.97. Variant FSDPSQSDPSTKDFWLNMAALTEA [E10S] has a protein stability index of 2.2. Variant FSDPSQSDPLTKDFWLNMAALTEA [E10L] has a protein stability index of 2.33. For FSDPSQSDPETKDFWLNAAALTEA [M18A], the protein stability index was 3.02. FSDPSQSDPETKDFWLNWAALTEA [M18W] gave a protein stability index of 3.18. In the case of FSDPSQSDPETKDFWLNDAALTEA [M18D], the protein stability index is reported as 4.25. Variant FSDPSQSDPETKDFWLNRAALTEA [M18R] has a protein stability index of 3.11. With FSDPSQSDPETKDFWLNLAALTEA [M18L] the protein stability index was 2.57. Work on FSDPSQSDPETKDFWLNCAALTEA [M18C] yielded a protein stability index of 2.78. FSDPSQSDPETKDFWLNGAALTEA [M18G] gave a protein stability index of 3.27. Variant FSDPSQSDPETKDFWLNSAALTEA [M18S] has a protein stability index of 3.12. With FSDPSQSDPETKDFWLNHAALTEA [M18H] the protein stability index was 3.22. Work on FSGPSQSDPETKDFWLNMAALTEA [D3G] yielded a protein stability index of 1.74. In the case of FSQPSQSDPETKDFWLNMAALTEA [D3Q], the protein stability index is reported as 2.08. For FSHPSQSDPETKDFWLNMAALTEA [D3H], the protein stability index was 1.69. With FSNPSQSDPETKDFWLNMAALTEA [D3N] the protein stability index was 2.02. FSKPSQSDPETKDFWLNMAALTEA [D3K] showed a protein stability index of 1.48. FSSPSQSDPETKDFWLNMAALTEA [D3S] gave a protein stability index of 2.38. FSLPSQSDPETKDFWLNMAALTEA [D3L] showed a protein stability index of 1.74. Variant FSVPSQSDPETKDFWLNMAALTEA [D3V] has a protein stability index of 1.45. In the case of FSDPSQSDPEKKDFWLNMAALTEA [T11K], the protein stability index is reported as 2.49. For FSDPSQSDPEHKDFWLNMAALTEA [T11H], the protein stability index was 2.87. For FSDPSQSDPEEKDFWLNMAALTEA [T11E], the protein stability index was 4.2. For FSDPSQSDPEMKDFWLNMAALTEA [T11M], the protein stability index was 2.31. For FSDPSQSDPEVKDFWLNMAALTEA [T11V], the protein stability index was 2.69. With FSDPSQSDPEQKDFWLNMAALTEA [T11Q] the protein stability index was 3.15. With FSDPSQSDPEDKDFWLNMAALTEA [T11D] the protein stability index was 4.34. Work on FSDPSQSDPESKDFWLNMAALTEA [T11S] yielded a protein stability index of 2.98. FSDPSQSDPETKDFWLQMAALTEA [N17Q] gave a protein stability index of 3.39. With FSDPSQSDPETKDFWLEMAALTEA [N17E] the protein stability index was 3.49. With FSDPSQSDPETKDFWLAMAALTEA [N17A] the protein stability index was 2.56. FSDPSQSDPETKDFWLTMAALTEA [N17T] gave a protein stability index of 3.03. FSDPSQSDPETKDFWLRMAALTEA [N17R] gave a protein stability index of 3.06. With FSDPSQSDPETKDFWLVMAALTEA [N17V] the protein stability index was 1.88. FSDPSQSDPETKDFWLIMAALTEA [N17I] showed a protein stability index of 1.98. Variant FSDPSQSDPETKDFWLDMAALTEA [N17D] has a protein stability index of 1.85. FSDPSQSDPETKDFWLNMNALTEA [A19N] gave a protein stability index of 2.41. In the case of FSDPSQSDPETKDFWLNMTALTEA [A19T], the protein stability index is reported as 1.79. In the case of FSDPSQSDPETKDFWLNMLALTEA [A19L], the protein stability index is reported as 2.44. Work on FSDPSQSDPETKDFWLNMGALTEA [A19G] yielded a protein stability index of 2.01. Work on FSDPSQSDPETKDFWLNMFALTEA [A19F] yielded a protein stability index of 2.18. FSDPSQSDPETKDFWLNMYALTEA [A19Y] gave a protein stability index of 2.7. In the case of FSDPSQSDPETKDFWLNMRALTEA [A19R], the protein stability index is reported as 3.21. Work on FSDPSQSDPETKDFWLNMHALTEA [A19H] yielded a protein stability index of 1.96. FSDPSQSCPETKDFWLNMAALTEA [D8C] gave a protein stability index of 2.62. In the case of FSDPSQSKPETKDFWLNMAALTEA [D8K], the protein stability index is reported as 2.32. FSDPSQSLPETKDFWLNMAALTEA [D8L] showed a protein stability index of 2.63. FSDPSQSIPETKDFWLNMAALTEA [D8I] gave a protein stability index of 2.9. With FSDPSQSQPETKDFWLNMAALTEA [D8Q] the protein stability index was 2.24. Work on FSDPSQSSPETKDFWLNMAALTEA [D8S] yielded a protein stability index of 2.71. FSDPSQSHPETKDFWLNMAALTEA [D8H] showed a protein stability index of 2.21. FSDPSQSTPETKDFWLNMAALTEA [D8T] showed a protein stability index of 2.81. Variant FSDPSQSDPETVDFWLNMAALTEA [K12V] has a protein stability index of 2.86. For FSDPSQSDPETCDFWLNMAALTEA [K12C], the protein stability index was 3.04. FSDPSQSDPETDDFWLNMAALTEA [K12D] showed a protein stability index of 4.39. Work on FSDPSQSDPETLDFWLNMAALTEA [K12L] yielded a protein stability index of 2.62. Variant FSDPSQSDPETHDFWLNMAALTEA [K12H] has a protein stability index of 3.2. Variant FSDPSQSDPETWDFWLNMAALTEA [K12W] has a protein stability index of 2.52. FSDPSQSDPETTDFWLNMAALTEA [K12T] showed a protein stability index of 3.15.
